Source: article PMC12102759 (2025)

B1: AXIN1 peptide 235-250 (Axin-1), 16-mer library wild type / PP2A B56 (PPP2R5A B56 domain, residues 1-486) (parent complex)
chain 1: SGYLPTLNEDEEWKAD
chain 2: not shown

Variants of: B1
Assay: proteomic peptide phage display deep mutational scan (ProP-PD DMS): M13 P8 16-mer library selected against immobilised GST-tagged bait for four days (rounds), NGS of the eluted pools per day and pseudo-replica; bait immobilised on MaxiSorp plates (10 µg), library pre-cleared on GST, 2 h binding at 4 °C, five washes; one round per day, days 1-4; value from days 2 and 3

Q: For chain 1 T6P, which screen value is on record?
A: The screen value was 0.000157 average fractional NGS count over selection days 2 and 3 (reads of this peptide / all reads for the bait, averaged over ….

Q: How did the screen value turn out when chain 1 N8I was run?
A: Its screen value is 0.00188 average fractional NGS count over selection days 2 and 3 (reads of this peptide / all reads for the bait, averaged over ….

Q: With chain 1 N8M as the variant, how does the screen value read?
A: The screen value was 0.000721 average fractional NGS count over selection days 2 and 3 (reads of this peptide / all reads for the bait, averaged over ….

Q: With chain 1 N8V as the variant, how does the screen value read?
A: The screen value was 0.022 average fractional NGS count over selection days 2 and 3 (reads of this peptide / all reads for the bait, averaged over ….

Q: With chain 1 N8L as the variant, how does the screen value read?
A: Its screen value is 0.000128 average fractional NGS count over selection days 2 and 3 (reads of this peptide / all reads for the bait, averaged over ….

Q: Which screen value does the source give for chain 1 N8Y here?
A: Its screen value is 0.00143 average fractional NGS count over selection days 2 and 3 (reads of this peptide / all reads for the bait, averaged over ….

Q: Which screen value does the source give for chain 1 N8W here?
A: Its screen value is 0.000126 average fractional NGS count over selection days 2 and 3 (reads of this peptide / all reads for the bait, averaged over ….

Q: Which screen value does the source give for chain 1 N8Q here?
A: The screen value was 0.00306 average fractional NGS count over selection days 2 and 3 (reads of this peptide / all reads for the bait, averaged over ….

Q: How did the screen value turn out when chain 1 D10H was run?
A: Its screen value is 0.000355 average fractional NGS count over selection days 2 and 3 (reads of this peptide / all reads for the bait, averaged over ….

Q: For chain 1 D10N, which screen value is on record?
A: The screen value was 0.000347 average fractional NGS count over selection days 2 and 3 (reads of this peptide / all reads for the bait, averaged over ….

Q: For chain 1 D10S, which screen value is on record?
A: The screen value was 0.000583 average fractional NGS count over selection days 2 and 3 (reads of this peptide / all reads for the bait, averaged over ….

Q: With chain 1 D10A as the variant, how does the screen value read?
A: The screen value was 0.00348 average fractional NGS count over selection days 2 and 3 (reads of this peptide / all reads for the bait, averaged over ….

Q: With chain 1 D10I as the variant, how does the screen value read?
A: The screen value was 0.00126 average fractional NGS count over selection days 2 and 3 (reads of this peptide / all reads for the bait, averaged over ….

Q: How did the screen value turn out when chain 1 D10W was run?
A: Its screen value is 0.0017 average fractional NGS count over selection days 2 and 3 (reads of this peptide / all reads for the bait, averaged over ….

Q: chain 1 D10Q was tested. Which screen value did it give?
A: Its screen value is 0.00101 average fractional NGS count over selection days 2 and 3 (reads of this peptide / all reads for the bait, averaged over ….

Q: For chain 1 K14T, which screen value is on record?
A: The screen value was 0.000943 average fractional NGS count over selection days 2 and 3 (reads of this peptide / all reads for the bait, averaged over ….

Q: For chain 1 K14L, which screen value is on record?
A: The screen value was 0.00437 average fractional NGS count over selection days 2 and 3 (reads of this peptide / all reads for the bait, averaged over ….

Q: chain 1 K14M was tested. Which screen value did it give?
A: Its screen value is 0.000958 average fractional NGS count over selection days 2 and 3 (reads of this peptide / all reads for the bait, averaged over ….

Q: With chain 1 K14S as the variant, how does the screen value read?
A: Its screen value is 0.000394 average fractional NGS count over selection days 2 and 3 (reads of this peptide / all reads for the bait, averaged over ….

Q: With chain 1 K14A as the variant, how does the screen value read?
A: The screen value was 0.000829 average fractional NGS count over selection days 2 and 3 (reads of this peptide / all reads for the bait, averaged over ….

Q: Which screen value does the source give for chain 1 K14R here?
A: Its screen value is 0.000196 average fractional NGS count over selection days 2 and 3 (reads of this peptide / all reads for the bait, averaged over ….

Q: How did the screen value turn out when chain 1 K14F was run?
A: Its screen value is 0.00121 average fractional NGS count over selection days 2 and 3 (reads of this peptide / all reads for the bait, averaged over ….

Q: Which screen value does the source give for chain 1 G2T here?
A: The screen value was 0.00134 average fractional NGS count over selection days 2 and 3 (reads of this peptide / all reads for the bait, averaged over ….

Q: How did the screen value turn out when chain 1 G2M was run?
A: The screen value was 0.0011 average fractional NGS count over selection days 2 and 3 (reads of this peptide / all reads for the bait, averaged over ….

Q: How did the screen value turn out when chain 1 G2V was run?
A: The screen value was 0.000268 average fractional NGS count over selection days 2 and 3 (reads of this peptide / all reads for the bait, averaged over ….

Q: How did the screen value turn out when chain 1 G2K was run?
A: Its screen value is 0.000562 average fractional NGS count over selection days 2 and 3 (reads of this peptide / all reads for the bait, averaged over ….

Q: With chain 1 G2I as the variant, how does the screen value read?
A: The screen value was 0.000957 average fractional NGS count over selection days 2 and 3 (reads of this peptide / all reads for the bait, averaged over ….

Q: With chain 1 G2P as the variant, how does the screen value read?
A: Its screen value is 0.0013 average fractional NGS count over selection days 2 and 3 (reads of this peptide / all reads for the bait, averaged over ….

Q: chain 1 E11W was tested. Which screen value did it give?
A: Its screen value is 0.000117 average fractional NGS count over selection days 2 and 3 (reads of this peptide / all reads for the bait, averaged over ….

Q: With chain 1 E11N as the variant, how does the screen value read?
A: The screen value was 0.00018 average fractional NGS count over selection days 2 and 3 (reads of this peptide / all reads for the bait, averaged over ….

Q: How did the screen value turn out when chain 1 E11H was run?
A: Its screen value is 0.000134 average fractional NGS count over selection days 2 and 3 (reads of this peptide / all reads for the bait, averaged over ….

Q: chain 1 E11T was tested. Which screen value did it give?
A: The screen value was 0.0139 average fractional NGS count over selection days 2 and 3 (reads of this peptide / all reads for the bait, averaged over ….

Q: With chain 1 E11M as the variant, how does the screen value read?
A: The screen value was 0.00494 average fractional NGS count over selection days 2 and 3 (reads of this peptide / all reads for the bait, averaged over ….

Q: For chain 1 A15F, which screen value is on record?
A: Its screen value is 0.000658 average fractional NGS count over selection days 2 and 3 (reads of this peptide / all reads for the bait, averaged over ….

Q: For chain 1 A15S, which screen value is on record?
A: Its screen value is 0.000672 average fractional NGS count over selection days 2 and 3 (reads of this peptide / all reads for the bait, averaged over ….

Q: How did the screen value turn out when chain 1 A15W was run?
A: The screen value was 0.000559 average fractional NGS count over selection days 2 and 3 (reads of this peptide / all reads for the bait, averaged over ….

Q: For chain 1 A15Q, which screen value is on record?
A: The screen value was 0.000281 average fractional NGS count over selection days 2 and 3 (reads of this peptide / all reads for the bait, averaged over ….

Q: chain 1 A15I was tested. Which screen value did it give?
A: The screen value was 0.000279 average fractional NGS count over selection days 2 and 3 (reads of this peptide / all reads for the bait, averaged over ….

Q: chain 1 A15N was tested. Which screen value did it give?
A: Its screen value is 0.000145 average fractional NGS count over selection days 2 and 3 (reads of this peptide / all reads for the bait, averaged over ….

Q: For chain 1 A15E, which screen value is on record?
A: The screen value was 0.000423 average fractional NGS count over selection days 2 and 3 (reads of this peptide / all reads for the bait, averaged over ….

Q: chain 1 A15M was tested. Which screen value did it give?
A: Its screen value is 0.00211 average fractional NGS count over selection days 2 and 3 (reads of this peptide / all reads for the bait, averaged over ….

Q: For chain 1 A15H, which screen value is on record?
A: Its screen value is 0.00152 average fractional NGS count over selection days 2 and 3 (reads of this peptide / all reads for the bait, averaged over ….

Q: How did the screen value turn out when chain 1 A15V was run?
A: The screen value was 0.00273 average fractional NGS count over selection days 2 and 3 (reads of this peptide / all reads for the bait, averaged over ….

Q: chain 1 A15L was tested. Which screen value did it give?
A: The screen value was 0.00106 average fractional NGS count over selection days 2 and 3 (reads of this peptide / all reads for the bait, averaged over ….

Q: How did the screen value turn out when chain 1 W13F was run?
A: Its screen value is 0.000389 average fractional NGS count over selection days 2 and 3 (reads of this peptide / all reads for the bait, averaged over ….

Q: For chain 1 W13V, which screen value is on record?
A: The screen value was 0.000494 average fractional NGS count over selection days 2 and 3 (reads of this peptide / all reads for the bait, averaged over ….

Q: For chain 1 D16A, which screen value is on record?
A: Its screen value is 0.00219 average fractional NGS count over selection days 2 and 3 (reads of this peptide / all reads for the bait, averaged over ….

Q: For chain 1 D16I, which screen value is on record?
A: The screen value was 0.000497 average fractional NGS count over selection days 2 and 3 (reads of this peptide / all reads for the bait, averaged over ….

Q: With chain 1 D16W as the variant, how does the screen value read?
A: The screen value was 0.000506 average fractional NGS count over selection days 2 and 3 (reads of this peptide / all reads for the bait, averaged over ….

Q: For chain 1 D16Y, which screen value is on record?
A: The screen value was 0.00243 average fractional NGS count over selection days 2 and 3 (reads of this peptide / all reads for the bait, averaged over ….

Q: chain 1 D16Q was tested. Which screen value did it give?
A: Its screen value is 0.00121 average fractional NGS count over selection days 2 and 3 (reads of this peptide / all reads for the bait, averaged over ….

Q: For chain 1 D16F, which screen value is on record?
A: The screen value was 0.00025 average fractional NGS count over selection days 2 and 3 (reads of this peptide / all reads for the bait, averaged over ….

Q: Which screen value does the source give for chain 1 E12Y here?
A: Its screen value is 0.000809 average fractional NGS count over selection days 2 and 3 (reads of this peptide / all reads for the bait, averaged over ….

Q: chain 1 E12S was tested. Which screen value did it give?
A: Its screen value is 0.000153 average fractional NGS count over selection days 2 and 3 (reads of this peptide / all reads for the bait, averaged over ….

Q: How did the screen value turn out when chain 1 E12M was run?
A: Its screen value is 0.000888 average fractional NGS count over selection days 2 and 3 (reads of this peptide / all reads for the bait, averaged over ….

Q: Which screen value does the source give for chain 1 E12I here?
A: Its screen value is 0.00181 average fractional NGS count over selection days 2 and 3 (reads of this peptide / all reads for the bait, averaged over ….

Q: With chain 1 Y3W as the variant, how does the screen value read?
A: Its screen value is 0.00058 average fractional NGS count over selection days 2 and 3 (reads of this peptide / all reads for the bait, averaged over ….

Q: Which screen value does the source give for chain 1 Y3M here?
A: The screen value was 0.000836 average fractional NGS count over selection days 2 and 3 (reads of this peptide / all reads for the bait, averaged over ….

Q: chain 1 Y3A was tested. Which screen value did it give?
A: The screen value was 0.00043 average fractional NGS count over selection days 2 and 3 (reads of this peptide / all reads for the bait, averaged over ….

Q: Which screen value does the source give for chain 1 Y3Q here?
A: The screen value was 0.000114 average fractional NGS count over selection days 2 and 3 (reads of this peptide / all reads for the bait, averaged over ….

Q: How did the screen value turn out when chain 1 Y3L was run?
A: The screen value was 0.000544 average fractional NGS count over selection days 2 and 3 (reads of this peptide / all reads for the bait, averaged over ….

Q: With chain 1 Y3F as the variant, how does the screen value read?
A: The screen value was 0.000133 average fractional NGS count over selection days 2 and 3 (reads of this peptide / all reads for the bait, averaged over ….
